The values below are quoted from earlier work in article PMC3429939.

In general, Kd refers to the equilibrium constant for the complex coming apart.

In the data set the target is galectin-1 CRD (Homo sapiens) (UniProt P09382).

Take galectin-1 CRD (from UniProt P09382): the Kd is 7 µM.
